Numbering of substitutions follows the chain as printed.
How the values were obtained:
biotinylated CRH [1] = molecular target: T1, biotinylated CRH (human and mouse, UniProt P01143 145-185 (rat entry), not fully specified; biotin; which end is not stated for the result (NT-biotin and CT-biotin forms were used)); test: ELISA, CRH (NT biotin)
T1 construct: also called biotin-CRH; CRH (NT biotin)
T1 peptide: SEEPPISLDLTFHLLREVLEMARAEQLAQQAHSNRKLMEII

biotinylated CRH [2] = molecular target: T1, biotinylated CRH; test: ELISA, CRH (NT biotin)
Protocol: (§1) Streptavidin (Thermo, Cat: 21125) was diluted in PBS to a concentration of 2 μg/ml. 100 μl of diluted streptavidin was added per well to ELISA microplates, and the plates were incubated overnight at 4° C. […] Subsequently, plates were washed and incubated with HRP-conjugated goat anti-human IgG (H+L) antibody (Jackson, Cat: 109-035-088) at 37° C. for 1 hour. 100 μL of 3,3′,5,5′-tetramethylbenzidine (TMB) substrate (Biopanda, Cat: TMB-S-003) was added, and the plates were incubated at room temperature for 15 minutes. 100 μL of ELISA stopping solution (Solarbio, Cat #: C1058) was added to terminate the reaction, and the optical density at 450 nm (OD450 nm) was determined by an ELISA plate reader (Molecular Devices, Spectra max 384 plus).
These potential PTMs were mutated individually either in HCDR2 alone, in LCDR1 alone, or in various combinations of mutations, as detailed in Table 3. […] Most ΔPTM variants retained functional activities.

[3] = molecular target: T2, corticotropin-releasing hormone (CRH) peptide (human and mouse, UniProt P01143 145-185 (rat entry), not fully specified); test: cell-based or functional assay
T2 peptide: T1 peptide

biotinylated CRH [4] = molecular target: T1, biotinylated CRH; test: CRH ELISA, compared with PR006669
Protocol: as §1

[5] = molecular target: T3, CRH (Central Region, CT Biotin) (C-terminal K-Biotin); test: ELISA, CRH central region peptide (CT biotin)
T3 construct: also called Central CRH
T3 peptide: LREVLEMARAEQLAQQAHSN
Protocol: as §1

[6] = molecular target: T4, CRH (Central Region, NT Biotin) (N-terminal Biotin-K; C-terminal NH2); test: ELISA, CRH central region peptide (NT biotin)
T4 construct: also called Central CRH
T4 peptide: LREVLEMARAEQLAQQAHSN
Protocol: as §1

[7] = molecular target: T5, CRH (C-Terminal Region, NT Biotin) (N-terminal Biotin-K; C-terminal NH2); test: ELISA, CRH C-terminal region peptide (NT biotin)
T5 construct: central region plus C-terminal region of CRH; also called C-Terminal CRH; C-Ter-CRH
T5 peptide: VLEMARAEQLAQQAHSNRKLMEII
Protocol: as §1

biotinylated CRH [8] = molecular target: T1, biotinylated CRH; test: ELISA, CRH (NT biotin)
Protocol: as §1

biotinylated CRH [9] = molecular target: T1, biotinylated CRH; test: Octet in-tandem competition on captured CRH; row = 1st mAb; competitor (2nd mAb) PR302341-34
Protocol: (§2) SA sensors (Fortebio, Cat #18-5019) were hydrated in running buffer for 10 mins.

[10] = molecular target: T6, human UCN3 peptide, biotinylated (human, UniProt Q969E3 120-157, biotin at N- or C-terminus); test: ELISA, hUCN3 (NT biotin) and (CT biotin)
T6 construct: also called hUCN3 (NT Biotin); hUCN3 (CT Biotin)
T6 peptide (looked up): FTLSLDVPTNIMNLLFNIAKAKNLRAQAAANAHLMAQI
Protocol: (§3) Streptavidin (Thermo, Cat: 21125) was diluted in PBS with a concentration of 2 μg/mL. 100 μL of diluted streptavidin was added per well to ELISA microplates, and the plates were incubated overnight at 4° C. Plates were blocked with ELISA blocking solution (containing 2% w/v BSA, 0.05% (v/v) Tween-20, pH 7.4 PBS buffer) at 37° C. for 1 hour, and then incubated with either 1 μg/mL hUCN1 (NT Biotin), hUCN1 (CT Biotin), hUCN2 (NT Biotin), hUCN2 (CT Biotin), hUCN3 (NT Biotin), or hUCN3 (CT Biotin) for 1 hour at 37° C. […] Plates were subsequently washed and incubated with HRP-conjugated goat anti-human IgG (H+L) antibody (Jackson, Cat: 109-035-088) at 37° C. for 1 hour. 100 μl of TMB Substrate (Biopanda, Cat: TMB-S-003) was added, and the plates were incubated at room temperature for 15 minutes. 100 μL of ELISA stopping solution (Solarbio, Cat #: C1058) was then added to terminate the reaction, and the OD450 nm was determined by an ELISA plate reader (Molecular Devices, Spectra max 384 plus).

[11] = molecular target: T7, human UCN2 peptide, biotinylated (human, UniProt Q96RP3 72-109, limits assumed, biotin at N- or C-terminus); test: ELISA, hUCN2 (NT biotin) and (CT biotin)
T7 construct: also called hUCN2 (NT Biotin); hUCN2 (CT Biotin)
T7 peptide (looked up): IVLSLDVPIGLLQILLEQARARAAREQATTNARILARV
Protocol: as §3

[12] = molecular target: T8, human UCN1 peptide, biotinylated (human, UniProt P55089 83-122, biotin at N- or C-terminus); test: ELISA, hUCN1 (NT biotin) and (CT biotin), mAb at 100 and 10 nM
T8 construct: also called hUCN1 (NT Biotin); hUCN1 (CT Biotin)
T8 peptide (looked up): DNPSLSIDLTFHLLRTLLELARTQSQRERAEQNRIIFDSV
Protocol: as §3

[13] = molecular target: T9, N-Terminal CRH peptide (N-terminal region plus central region, CT biotin) (human and mouse, C-terminal K-Biotin); test: ELISA, N-Ter-CRH (CT-biotin) on streptavidin
T9 construct: also called N-Ter-CRH
T9 peptide: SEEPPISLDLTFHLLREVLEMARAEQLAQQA
Protocol: as §1

[14] = molecular target: T2, corticotropin-releasing hormone (CRH) …; test: cell-based or functional assay
biotinylated CRH [15] = molecular target: T1, biotinylated CRH; test: ELISA, CRH (CT biotin)
Protocol: as §1

biotinylated CRH [16] = molecular target: T1, biotinylated CRH; test: ELISA, CRH (CT biotin)
biotinylated CRH [17] = molecular target: T1, biotinylated CRH; test: ELISA, CRH (NT biotin)
biotinylated CRH [18] = molecular target: T1, biotinylated CRH; test: ELISA, CRH (CT biotin)
biotinylated CRH [19] = molecular target: T1, biotinylated CRH; test: Octet in-tandem competition on captured CRH; row = 1st mAb; competitor (2nd mAb) PR006669
Protocol: as §2

[20] = molecular target: T8, human UCN1 peptide, biotinylated; test: ELISA, hUCN1 (CT biotin)
Protocol: as §1

[21] = molecular target: T8, human UCN1 peptide, biotinylated; test: ELISA, hUCN1 (NT biotin)
Protocol: as §1

B1: PR301806 (antibody, human IgG1, kappa, V domains shown)
VH: QVQLQQPGAELVKPGTSVKMSCKASGYTFTSYWMHWVKQRPGQGLEWIGDIYPGSDSTNYNEKFKSKASLTVDTSSSTAYMQLSSLTSEDSAVYYCARSITTTTFWYFDVWGAGTTVTVSS
VL: DVLMTQTPLSLPVSLGDQASISCRSSQSFVYSNGNTYLQWYLQKPGQSPKLLIYKVSNRFSGVPDRFSGSGSGTDFTLKISRVEAEDLGVYYCFQGSHVPPTFGAGTKLELKR
B1: binds (biotinylated CRH [1]).

B2: PR005656 (antibody, human IgG1, kappa, V domains shown)
VH: EVQLVESGGVLVQPGGSLRLSCAASGFTFSSYWMTWVRQAPGKGLEWVANIKQEGSEKYYVDSVKGRFTISRDNAKNSLFLQMNSLRAEDTAVYYCARTLIFDYWGQGTLVTVSS
VL: DIVMTQSPLSLPVTPGEPASISCRSSQSLLHSTGYNSLEWYLQKPGQSPQLLIYLGSNRASGVPDRFSGSGSGTDFTLKISRVEAEDVGIYYCMQTLQTPITFGQGTRLEIKR
In the case of B2, the “EC50 (read off the curve)” value (biotinylated CRH [2]) is reported as roughly 0.03 nM and the “IC50 (read off the curve), CRH-induced mCRHR1 luciferase reporter” value [3] is reported as roughly 4 nM.

B3: PR006745 (antibody, human IgG1, kappa, V domains shown)
VH: EVQLVESGGGLVQPGGSLRLSCAASGFTFSDNWMSWVRQAPGKGLEWVANIKQDASENYYVDSVKGRFTISRDNAKNSLYLQMNSLRAEDTAVYYCSRGLALWGWGQGTLVTVSS
VL: B2 VL with Q6H, E17D, S37Y, E39D, I80F, S81I, I90V, T96A, I101Y, R108K
B3: binds (biotinylated CRH [4]).

B4: PR005660 (antibody, human IgG1, kappa, V domains shown)
VH: B2 VH
VL: B2 VL with N36Q
B4: no binding (tested: 100 nM) [5]; no binding (tested: 100 nM) [6]; no binding (tested: 100 nM) [7]. The “EC50 (read off the curve)” value (biotinylated CRH [8]) was roughly 0.03 nM, the “% Inhibition” value (biotinylated CRH [9]) was 90% and the binding result [10] was “no binding (tested: 100 nM)”. For the same binder, the binding result [11] was “no binding (tested: 100 nM)”, the binding result [12] was “binds” and the EC50 [13] was 0.076 nM. The “EC50 (read off the curve)” value (biotinylated CRH [2]) was roughly 0.03 nM, the “IC50 in the hCRHR1 reporter assay” value [14] was roughly 10 nM and the “EC50 (read off the curve)” value (biotinylated CRH [15]) was roughly 0.05 nM.

B5: PR301788 (antibody, human IgG1, kappa, V domains shown)
VH: EMKLEESGGGLVQPGGSMKLSCVASGFTFSNYWMNWVRQSPEKGLEWVAEIRLKSNNYATHYAESVKGRFTISRDDSKSSVYLQMNNLRAEDTGIYYCTIGTLVYWGQGTLVTVSA
VL: DIVLTQSPASLAVSLGQRATISCRASQSVSTSTYNYMHWFQQKPGQPPKLLIKFASNLESGVPARFSGSGSGTDFTLNIHPVEEEDTATFYCQHSWEIPYTFGGGTKLEIKR
B5: binds (biotinylated CRH [1]).

B6: PR301306 (antibody, human IgG1, kappa, V domains shown)
VH: B5 VH with M2V, H61L, I100R
VL: B5 VL with T33D, F40Y, F54Y, F90Y
With B6 the “EC50 (read off the curve)” value (biotinylated CRH [16]) was roughly 0.04 nM and the “EC50 (read off the curve)” value (biotinylated CRH [17]) was roughly 0.1 nM.

B7: PR301612 (antibody, human IgG1, kappa, V domains shown)
VH: EVKLEESGGGLVQPGGSIKLSCVASGFTFSGAWMAWVRQSPEKGLEWVAEIKNKANNHATFYAESVKGRFIISRDDSKSSVYLQMNSLRAEDTGTYYCTLPDVWGTGTTVTVSS
VL: QIVLTQSPAIMSASPGERVTISCSASSSVSNMYWYLQKPGSSPKPWIYRTSNLASGVPARFSGSGSGTSYSLTISSMEAEDVATYYCQQYHSFPRTFGGGTKLEIKR
In the case of B7, the “EC50 (read off the curve)” value (biotinylated CRH [18]) is reported as roughly 0.03 nM.

B8: PR303394 (antibody, human IgG1, kappa, V domains shown)
VH: EVQLQQSGPELVKPGVSMKISCKASGYSFTDSTMNWVKQSHGKNLEWIGLIHPDNGGTIYNQKFKGKATLTVHKSSSTAYMELLSLTSEDSAVYYCANGFAYWGQGTLVTVSA
VL: DVVMTQTPLSLPVSLGDQASISCRSSQSLLHSNGNTYLHWYLQKPGQSPELLIYKVSNRFSGVPDRFSGSGSGTDFTLKISRVEAEDLGVYFCSQSTHVPLTFGAGTKLELKR
notes: also called analog of CTRND05
With B8 the “% Inhibition” value (biotinylated CRH [19]) was 90%, the “EC50 (read off the curve)” value [20] was roughly 0.02 nM and the “EC50 (read off the curve)” value (biotinylated CRH [8]) was roughly 0.03 nM. For the same binder, the “EC50 (read off the curve)” value [21] was roughly 0.02 nM, the binding result [10] was “no binding (tested: 100 nM)” and the binding result [11] was “no binding (tested: 100 nM)”. The “EC50 (read off the curve)” value (biotinylated CRH [15]) was roughly 0.03 nM.
